Assay results: patent US11866736B2, “Protein prostheses for mitochondrial diseases or conditions” (The General Hospital Corporation, priority 2015, dated 2024)

Experiments:
HeLa Tet3G cells [1] = experiment: Total NAD+/NADH ratio by HPLC; format: cell-based, human; conditions: doxycycline-inducible expression
Procedure: One million HeLa Tet3G Luciferase, LbNOX or mitoLbNOX cells were seeded per a 10 cm plate in 10 ml of DMEM (DMEM (US Biological, D9800), 3.7 g/L NaHCO3, 10% dialyzed FBS (Life Technologies, 26400-044)). Twenty four hours and 1 hour before extraction, media was exchanged to 10 ml of DMEM without pyruvate (DMEM (US Biological, D9802), 15.9 mg/L phenol red, 3.7 g/L NaHCO3, 10% dialyzed FBS (Life Technologies, 26400-044)) with or without 300 ng/ml doxycycline. The media that was used 1 hour before extraction was preincubated overnight in tissue culture incubator without cells. Media was quickly aspirated, cells rinsed with 15 ml of ice-cold PBS, transferred to dry ice and 4 ml of dry ice cold solution of 80% methanol: 20% water (spiked with 5 μM Sodium L-Lactate-3,3,3-D3 and 0.2 μM Sodium [3-^13C]Pyruvate) was added and quickly spread around by tilting the plate. The whole procedure from aspiration of media to adding 80% methanol solution took about ˜15 seconds. The plate was transferred on dry ice to −80° C. freezer and incubated for 15 min. […]
Metabolites were analyzed by ion exchange chromatography using μBondapak NH2 300×3.9-mm column (Waters, WAT084040) attached to Agilent 1260 HPLC system. […] Absorbance was monitored at […] for NADH. […] Energy charge calculated ([ATP]+0.5 [ADP])/([ATP]+[ADP]+[AMP]) was usually ˜0.95.

HeLa Tet3G cells [2] = experiment: Glucose concentration-dependent cell survival; format: cell-based, human
Procedure: Images of 96-well plates with fixed cells stained with Hoechst 33345 were collected using Molecular Devices IMAGEXPRESS® Micro XLS. Four images were taken to cover the whole well. Images were analyzed and nuclei number per well was counted using CellProfiler 2.0 image analysis software (Carpenter, et al., Genome Biol., 7:R100, 2006; and Kamentsky, et al., Bioinformatics, 27:1179, 2011).
Ten thousand HeLa Tet3G NDI1, Luciferase, LbNOX or mitoLbNOX cells were seeded in 200 μl of DMEM (DMEM (US Biological, D9800), 3.7 g/L NaHCO3, 10% dialyzed FBS (Life Technologies, 26400-044)) per well of a black 96-well plate with clear bottom (Corning, 3904). Twenty four hours after seeding, 10 μl of 6 μg/ml doxycycline (300 ng/ml final concentration) or water was added to each well. Twenty four hours after addition of doxycycline, media was exchanged to DMEM (DMEM (US Biological, D9800), 3.7 g/L NaHCO3, 10% dialyzed FBS (Life Technologies, 26400-044))±300 ng/ml doxycycline. […] After 24 hours, media was aspirated and cells were fixed by adding 100 μl of 4% paraformaldehyde in PBS and incubating at room temperature for at least 30 min. Paraformaldehyde solution was aspirated and cells were stained with 200 μl of 1 μg/ml Hoechst 33345. Plates were covered with sealing aluminum foil and stored at 4° C. before counting cells in each well with Molecular Dynamics IMAGEXPRESS® Ultra (see “Nuclei counting using Molecular Devices IMAGEXPRESS® Ultra,” above).

B1: LbNOX: water-forming NADH oxidase endogenous to Lactobacillus brevis; tested with C-terminal FLAG tag (protein, listed as Lactobacillus brevis)
chain: KVTVVGCTHAGTFAIKQILAEHPDAEVTVYERNDVISFLSCGIALYLGGKVADPQGLFYSSPEELQKLGANVQMNHNVLAIDPDQKTVTVEDLTNHAQTTESYDKLVMTSGSWPIVPKIPGIDSDRVKLCKNWAHAQALIEDAKEAKRITVIGAGYIGAELAEAYSTTGHDVTLIDAMARVMPKYFDADFTDVIEQDYRDHGVQLALGETVESFTDSATGLTIKTDKNSYETDLAILCIGFRPNTDLLKGKVDMAPNGAIITDDYMRSSNPDIFAAGDSAAVHYNPTHQNAYIPLATNAVRQGILVGKNLVKPTVKYMGTQSSSGLALYDRTIVSTGLTLAAAKQQGLNAEQVIVEDNYRPEFMPSTEPVLMSLVFDPDTHRILGGALMSKYDVSQSANTLSVCIQNENTIDDLAMVDMLFQPNFDRPFNYLNILAQAAQAKVAQSVNA
modifications: C-terminal FLAG tag
effect on total NAD+/NADH ratio (HeLa Tet3G cells [1]): did not have a significant effect
effect on decrease in cell number (cell survival) at low glucose concentrations in the presence of piericidin (HeLa Tet3G cells [2]; 1 μM piericidin, 24 hours): no effect
effect on decrease in cell number (cell survival) at low glucose concentrations in the presence of antimycin (HeLa Tet3G cells [2]; antimycin): no effect
